How the values were obtained:
[1] = molecular target: T1, recombinant human CD8 (rhCD8) (human, UniProt P01732 22-182); assay: SPR (summary table)
T1 construct: Soluble purified recombinant protein; also called purified recombinant human CD8 protein; soluble CD8
Text: (§1) Surface plasma resonance (SPR) was used to determine the binding affinity for all the IAb_Mb_CD8 variants to recombinant human CD8 (Table 8.0). The minibody protein in the supernatant was captured on to the BIAcore chip using an anti-human IgG (Fc-specific) antibody. The amount of minibody captured on the chip was normalized to enable a direct comparison of binding affinity between the variants as a kinetic “scouting” experiment to rank affinities. The rhCD8 protein was passed over the captured minibody protein to measure binding.
(§2) Table 8.0 summarizes the measured association (ka), dissociation (kd), and kD constants for the IAb_Mb_CD8 variants binding to recombinant hCD8. The variants were captured on a BIAcore chip using anti-human Fc-specific IgG antibody.

cell-surface human CD8 [2] = molecular target: T2, cell-surface human CD8 (human, UniProt P01732 22-235); assay: flow cytometry, HPB-ALL cells
T2 construct: the cell is named under assay; also called cellular human CD8; CD8 on PC3-CD8 cells
Method: (§3) Flow cytometry analysis of the OKT8 mAbconstruct binding to cell-surface human CD8 on HPB-ALL cells was performed. Cells were stained with respective concentrations of antibody, washed, and then stained with a secondary anti-mouse IgG (Fc-specific) APC-conjugated antibody. Analysis was performed with 10,000 events/point in triplicate for each concentration. The results are shown in graph format in FIG. 28. The graph presents the mean fluorescence intensity (MFI) vs. the log of the concentration (nM). Error bars represent the standard error. The data indicates an EC₅₀ of 0.22 nM.

cell-surface human CD8 [3] = molecular target: T2, cell-surface human CD8; assay: flow cytometry, HPB-ALL cells; Table 9 summary, HPB-ALL cells
Method: as §3

[4] = molecular target: T1, recombinant human CD8 (rhCD8); assay: SPR (BIAcore), antibody as captured ligand, hCD8 analyte at 50 nM
cell-surface human CD8 [5] = molecular target: T2, cell-surface human CD8; assay: flow cytometry on HPB-ALL cells, anti-mouse IgG (Fc-specific)-APC
Method: as §3

cell-surface human CD8 [6] = molecular target: T2, cell-surface human CD8; assay: flow cytometry, HPB-ALL cells; remark: listed apart in the source
Method: (§4) Flow cytometry analysis of minibodies binding to cell-surface human CD8 on HPB-ALL cells was performed. Cells were stained with respective concentrations of minibody, washed, and then stained with a secondary anti-human IgG (Fc-specific) APC-conjugated antibody. Analysis was performed with 10,000 events/point in triplicate for each concentration. The results are shown in graph format in FIG. 29A. The graph presents the normalized mean fluorescence intensity (MFI) vs. the log of the concentration (nM). Error bars represent the standard error. The data indicates an EC₅₀ of 0.15 nM and 0.19 nM.
as §4, with “analysis of IgG2 minibodies binding” for “analysis of minibodies binding”, “in FIG. 29E. The graph” for “in FIG. 29A. The graph”, “EC₅₀ of 0.1 nM, 0.13 nM, and 0.08” for “EC₅₀ of 0.15 nM and 0.19”, “nM, and 0.08 nM.” for “nM and 0.19 nM.”

cell-surface human CD8 [7] = molecular target: T2, cell-surface human CD8; assay: flow cytometry, primary human CD8+ T cells
Method: as §4, with “primary human CD8+ T” for “HPB-ALL”, “29B.” for “29A.”, “0.1” for “0.15”, “0.26” for “0.19”

cell-surface human CD8 [8] = molecular target: T2, cell-surface human CD8; assay: flow cytometry, PC3 cells overexpressing CD8
cell-surface human CD8 [9] = molecular target: T2, cell-surface human CD8; assay: flow cytometry on HPB-ALL cells, anti-human IgG (Fc-specific)-APC
Method: as §4

cell-surface human CD8 [10] = molecular target: T2, cell-surface human CD8; assay: as above; remark: listed apart in the source
cell-surface human CD8 [11] = molecular target: T2, cell-surface human CD8; assay: as above; remark: listed apart in the source
Method: as §4, with “analysis of IgG2 minibodies binding” for “analysis of minibodies binding”, “in FIG. 29E. The graph” for “in FIG. 29A. The graph”, “EC₅₀ of 0.1 nM, 0.13 nM, and 0.08” for “EC₅₀ of 0.15 nM and 0.19”, “nM, and 0.08 nM.” for “nM and 0.19 nM.”

[12] = molecular target: T1, recombinant human CD8 (rhCD8); assay: SPR (BIAcore), minibody captured via anti-human IgG Fc, hCD8 analyte at 50 nM
Text: as §1, §2

cell-surface human CD8 [13] = molecular target: T2, cell-surface human CD8; assay: flow cytometry on primary human CD8+ T cells, anti-human IgG (Fc-specific)-APC
Method: as §4, with “primary human CD8+ T” for “HPB-ALL”, “29B.” for “29A.”, “0.1” for “0.15”, “0.26” for “0.19”

cell-surface human CD8 [14] = molecular target: T2, cell-surface human CD8; assay: flow cytometry on PC3 cells overexpressing CD8, anti-human IgG (Fc-specific)-APC
Method: Flow cytometry analysis of minibody (+/−lysine conjugation to Desferoxamine) binding to PC3 cells overexpressing CD8 was performed. Cells were stained with respective concentrations of minibody, washed, and then stained with a secondary anti-human IgG (Fc-specific) APC-conjugated antibody. Analysis was performed with 10,000 events/point in triplicate for each concentration. The results are shown in graph format in FIG. 29D. The graph presents the mean fluorescence intensity (MFI) vs. the log of the concentration (nM). Error bars represent the standard error. The data indicates an EC₅₀ of 0.64 nM and 0.83 nM.

[15] = molecular target: T1, recombinant human CD8 (rhCD8); assay: ELISA on plate-coated rhCD8, transfection supernatant, HRP goat anti-human IgG (Fc-specific), TMB, absorbance 405 nm
Method: 96 well plates were coated with rhCD8 antigen and incubated with supernatants obtained from the transient transfection. Binding was detected with HRP-conjugated goat anti-human (Fc-specific) IgG and TMB substrate. The absorbance measured at 405 nm. Dilutions were done in triplicate. Data is shown as mean of relative absorbance.

[16] = molecular target: T1, recombinant human CD8 (rhCD8); assay: SPR (summary table); Table 9 summary

T1 sequence (P01732 22-182 limits assumed): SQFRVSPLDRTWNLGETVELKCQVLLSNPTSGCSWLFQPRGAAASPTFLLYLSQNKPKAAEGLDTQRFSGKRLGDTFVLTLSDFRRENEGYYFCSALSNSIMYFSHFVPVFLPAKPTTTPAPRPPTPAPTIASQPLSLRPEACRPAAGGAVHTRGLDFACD
T2 sequence (P01732 22-235 limits assumed): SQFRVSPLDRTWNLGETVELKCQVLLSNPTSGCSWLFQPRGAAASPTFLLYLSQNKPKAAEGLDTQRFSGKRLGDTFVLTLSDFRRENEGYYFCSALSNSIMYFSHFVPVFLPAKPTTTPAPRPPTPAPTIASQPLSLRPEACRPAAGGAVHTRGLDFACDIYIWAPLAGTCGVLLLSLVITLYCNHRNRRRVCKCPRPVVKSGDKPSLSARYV

| Binder | Kd [1] [nM] | EC50 (cell-surface human CD8 [6]) [nM] | EC50 (cell-surface human CD8 [7]) [nM] | EC50 (cell-surface human CD8 [9]) [nM] | EC50 (cell-surface human CD8 [10]) [nM] | Ka [12] [M⁻¹] | Kd [12] [nM] | koff [12] [s⁻¹] | kon [12] [M⁻¹ s⁻¹] | EC50 (cell-surface human CD8 [13]) [nM] | EC50 (read off the curve) (cell-surface human CD8 [13]) [nM] | EC50 (cell-surface human CD8 [14]) [nM] | EC50 (read off the curve) (cell-surface human CD8 [14]) [nM] | also measured |
| --- | --- | --- | --- | --- | --- | --- | --- | --- | --- | --- | --- | --- | --- | --- |
| OKT8 mAb (antibody, V domains shown, Parental murine monoclonal antibody (detected with anti-mouse IgG Fc); also called parental OKT8 antibody; parental OKT8) VH: EVQLQQSGAELVKPGASVKLSCTASGFNIKDTYIHFVRQRPEQGLEWIGRIDPANDNTLYASKFQGKATITADTSSNTAYMHLCSLTSGDTAVYYCGRGYGYYVFDHWGQGTTLTVSS VL: DVQINQSPSFLAASPGETITINCRTSRSISQYLAWYQEKPGKTNKLLIYSGSTLQSGIPSRFSGSGSGTDFTLTISGLEPEDFAMYYCQQHNENPLTFGAGTKLELK | 1.8 |  |  |  |  |  |  |  |  |  |  |  |  | EC50 (cell-surface human CD8 [2]): 0.22 nM; EC50 (cell-surface human CD8 [3]): 0.33 nM; Ka [4]: 5.5e+08 M⁻¹; Kd [4]: 1.8 nM; koff [4]: 0.001 s⁻¹; kon [4]: 560000 M⁻¹ s⁻¹; EC50 (cell-surface human CD8 [5]): 0.33 nM; EC50 (read off the curve) (cell-surface human CD8 [5]): ~0.3 nM |
| IAb_Mb1b_CD8 (other, also called IAb M1b CD8) DVQITQSPSSLSASVGDRVTITCRTSRSISQYLAWYQQKPGKVPKLLIYSGSTLQSGVPSRFSGSGSGTDFTLTISSLQPEDVATYYCQQHNENPLTFGGGTKVEIKGSTSGGGSGGGSGGGGSSEVQLVESGGGLVQPGGSLRLSCAASGFNIKDTYIHFVRQAPGKGLEWIGRIDPANDNTLYASKFQGKATISADTSKNTAYLQMNSLRAEDTAVYYCGRGYGYYVFDHWGQGTLVTVSSEPKSCDKTHTCPPCGGGSSGGGSGGQPREPQVYTLPPSRDELTKNQVSLTCLVKGFYPSDIAVEWESNGQPENNYKTTPPVLDSDGSFFLYSKLTVDKSRWQQGNVFSCSVMHEALHNHYTQKSLSLSPGK | 1.9 | 0.1 | 0.1 | 0.15 | 0.13 | 5.4e+08 | 1.9 | 0.0012 | 640000 | 0.1 | ~0.1 | 0.64 | ~0.7 | EC50 (cell-surface human CD8 [8]): 0.6 nM; EC50 (cell-surface human CD8 [11]): 0.1 nM |
| IAb_M1b_CD8-Df (other, Desferoxamine (Df) conjugated to lysine residues, also called Df-labeled minibody) DVQITQSPSSLSASVGDRVTITCRTSRSISQYLAWYQQKPGKVPKLLIYSGSTLQSGVPSRFSGSGSGTDFTLTISSLQPEDVATYYCQQHNENPLTFGGGTKVEIKGSTSGGGSGGGSGGGGSSEVQLVESGGGLVQPGGSLRLSCAASGFNIKDTYIHFVRQAPGKGLEWIGRIDPANDNTLYASKFQGKATISADTSKNTAYLQMNSLRAEDTAVYYCGRGYGYYVFDHWGQGTLVTVSSEPKSCDKTHTCPPCGGGSSGGGSGGQPREPQVYTLPPSRDELTKNQVSLTCLVKGFYPSDIAVEWESNGQPENNYKTTPPVLDSDGSFFLYSKLTVDKSRWQQGNVFSCSVMHEALHNHYTQKSLSLSPGK |  |  |  |  | 0.12 |  |  |  |  |  |  | 0.83 | ~0.9 |  |
| IAb_Mb1c_CD8 (other, also called variant 1c) DVQITQSPSSLSASVGDRVTITCRTSRSISQYLAWYQQKPGKVPKLLIYSGSTLQSGVPSRFSGSGSGTDFTLTISSLQPEDVATYYCQQHNENPLTFGGGTKVEIKGSTSGGGSGGGSGGGGSSQVQLVQSGAEVKKPGATVKISCKVSGFNIKDTYIHFVQQAPGKGLEWIGRIDPANDNTLYASKFQGKATITADTSTDTAYMELSSLRSGDTAVYYCGRGYGYYVFDHWGQGTLVTVSSEPKSCDKTHTCPPCGGGSSGGGSGGQPREPQVYTLPPSRDELTKNQVSLTCLVKGFYPSDIAVEWESNGQPENNYKTTPPVLDSDGSFFLYSKLTVDKSRWQQGNVFSCSVMHEALHNHYTQKSLSLSPGK |  |  |  |  |  | 4e+08 | 2.5 | 0.0018 | 700000 |  |  |  |  | EC50 (read off the curve) [15]: ~0.02 µg/mL |
| IAb_Mb2b_CD8 (other, also called IAb M2b CD8) EVQLVESGGGLVQPGGSLRLSCAASGFNIKDTYIHFVRQAPGKGLEWIGRIDPANDNTLYASKFQGKATISADTSKNTAYLQMNSLRAEDTAVYYCGRGYGYYVFDHWGQGTLVTVSSGSTSGGGSGGGSGGGGSSDVQITQSPSSLSASVGDRVTITCRTSRSISQYLAWYQQKPGKVPKLLIYSGSTLQSGVPSRFSGSGSGTDFTLTISSLQPEDVATYYCQQHNENPLTFGGGTKVEIKEPKSCDKTHTCPPCGGGSSGGGSGGQPREPQVYTLPPSRDELTKNQVSLTCLVKGFYPSDIAVEWESNGQPENNYKTTPPVLDSDGSFFLYSKLTVDKSRWQQGNVFSCSVMHEALHNHYTQKSLSLSPGK |  | 0.19 | 0.26 | 0.19 |  | 2.6e+08 | 3.9 | 0.0021 | 540000 | 0.26 | ~0.3 |  |  | Kd [16]: 3.6 nM |
